# Legend:
# [1] = molecular target: T1, LRP6 (low-density lipoprotein receptor-related protein 6) (UniProt O75581 20-1370, limits assumed); test: cell-based or functional assay
# T1 sequence (looked up): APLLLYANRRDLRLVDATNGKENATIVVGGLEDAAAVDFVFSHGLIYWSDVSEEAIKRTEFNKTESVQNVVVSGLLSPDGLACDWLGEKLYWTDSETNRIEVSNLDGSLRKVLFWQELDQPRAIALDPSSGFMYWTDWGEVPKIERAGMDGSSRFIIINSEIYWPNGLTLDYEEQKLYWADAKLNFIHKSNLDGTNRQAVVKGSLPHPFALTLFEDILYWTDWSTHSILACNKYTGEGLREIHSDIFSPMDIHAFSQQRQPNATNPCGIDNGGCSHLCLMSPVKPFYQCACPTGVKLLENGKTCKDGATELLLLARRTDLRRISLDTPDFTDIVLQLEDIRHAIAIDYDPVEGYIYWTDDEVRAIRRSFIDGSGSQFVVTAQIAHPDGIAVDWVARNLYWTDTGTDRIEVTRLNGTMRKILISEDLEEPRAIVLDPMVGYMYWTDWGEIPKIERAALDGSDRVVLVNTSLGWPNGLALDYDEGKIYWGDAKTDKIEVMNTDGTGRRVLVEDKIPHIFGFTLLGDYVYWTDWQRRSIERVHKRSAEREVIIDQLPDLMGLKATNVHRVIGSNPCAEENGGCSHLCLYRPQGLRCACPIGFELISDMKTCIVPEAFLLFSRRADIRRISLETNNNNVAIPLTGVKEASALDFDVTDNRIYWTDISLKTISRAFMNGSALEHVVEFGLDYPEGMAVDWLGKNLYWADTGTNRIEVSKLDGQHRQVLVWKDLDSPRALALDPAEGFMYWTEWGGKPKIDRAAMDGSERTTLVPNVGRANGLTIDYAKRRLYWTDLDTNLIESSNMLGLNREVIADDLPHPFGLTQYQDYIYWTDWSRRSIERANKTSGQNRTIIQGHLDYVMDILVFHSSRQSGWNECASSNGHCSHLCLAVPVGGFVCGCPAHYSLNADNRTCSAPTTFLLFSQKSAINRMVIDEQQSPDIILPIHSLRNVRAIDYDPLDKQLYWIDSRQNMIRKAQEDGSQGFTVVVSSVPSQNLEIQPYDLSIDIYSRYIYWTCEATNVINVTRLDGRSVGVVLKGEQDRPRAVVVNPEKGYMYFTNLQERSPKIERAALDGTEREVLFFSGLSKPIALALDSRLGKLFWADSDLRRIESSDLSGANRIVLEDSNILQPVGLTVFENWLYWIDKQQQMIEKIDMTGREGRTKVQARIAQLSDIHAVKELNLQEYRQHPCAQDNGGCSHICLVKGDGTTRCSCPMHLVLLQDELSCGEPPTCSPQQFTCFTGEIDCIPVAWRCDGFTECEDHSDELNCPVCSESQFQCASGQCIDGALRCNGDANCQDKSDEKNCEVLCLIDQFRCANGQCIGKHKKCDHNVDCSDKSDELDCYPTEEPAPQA
# [2] = molecular target: T1, LRP6 (low-density lipoprotein …); test: cell-based or functional assay; remark: listed apart in the source
binder,measurement,setting,value
"ANT-1 (LRP Diabody-Fc-FZD Fab; paratopes 2540, 2542; 5016) (bispecific antibody) heavy 1: MNLLLILTFVAAAVAEFEVQLVESGGGLVQPGGSLRLSCAASGFNISSYYIHWVRQAPGKGLEWVASIYSSYGYTSYADSVKGRFTISADTSKNTAYLQMNSLRAEDTAVYYCARTVRGSKKPYFSGWAMDYWGQGTLVTVSSGGGGSDIQMTQSPSSLSASVGDRVTITCRASQSVSSAVAWYQQKPGKAPKLLIYSASSLYSGVPSRFSGSRSGTDFTLTISSLQPEDFATYYCQQYYFLITFGQGTKVEIKLEDKTHTKVEPKSSDKTHNCPPCPAPELLGGPSVFLFPPKPKDTLMISRTPEVTCVVVDVSHEDPEVKFNWYVDGVEVHNAKTKPREEQYNSTYRVVSVLTVLHQDWLNGKEYKCKVSNKALPAPIEKTISKAKGQPREPQVYTLPPIRELMTSNQVSLSCAVKGFYPSDIAVEWESNGQPENNYKTTPPVLDSDGSFFLVSKLTVDKSRWQQGNVFSCSVMHEALHNHYTQKSLSLSPGKSGSETPGTSESATPESGGGEVQLVESGGGLVQPGGSLRLSCAASGFNIHSSSIHWVRQAPGKGLEWVAATYSSFGSITYADSVKGRFTISADTSKNTAYLQMNSLRAEDTAVYYCARYHHPFGYALDYWGQGTLVTVSSASTKGPSVFPLAPSSKSTSGGTAALGCLVKDYFPEPVTVSWNSGALTSGVHTFPAVLQSSGLYSLSSVVTVPSSSLGTQTYICNVNHKPSNTKVDKKVEPKSCDKTHT heavy 2: MNLLLILTFVAAAVAEFEVQLVESGGGLVQPGGSLRLSCAASGFNISYSSIHWVRQAPGKGLEWVASISPYYGYTYYADSVKGRFTISADTSKNTAYLQMNSLRAEDTAVYYCARSSYFPWFSAMDYWGQGTLVTVSSGGGGSDIQMTQSPSSLSASVGDRVTITCRASQSVSSAVAWYQQKPGKAPKLLIYSASSLYSGVPSRFSGSRSGTDFTLTISSLQPEDFATYYCQQYYWPITFGQGTKVEIKLEDKTHTKVEPKTSDKTHTCPPCPAPELLGGPSVFLFPPKPKDTLMISRTPEVTCVVVDVSHEDPEVKFNWYVDGVEVHNAKTKPREEQYNSTYRVVSVLTVLHQDWLNGKEYKCKVSNKALPAPIEKTISKAKGQPREPMVFDLPPSREEMTKNQVSLWCMVKGFYPSDIAVEWESNGQPENNYKTTPPVLDSDGSFFLYSKLTVDKSRWQQGNVFSCSVMHEALHNHYTQKSLSLSPGKSGSETPGTSESATPESGGGEVQLVESGGGLVQPGGSLRLSCAASGFNIHSSSIHWVRQAPGKGLEWVAATYSSFGSITYADSVKGRFTISADTSKNTAYLQMNSLRAEDTAVYYCARYHHPFGYALDYWGQGTLVTVSSASTKGPSVFPLAPSSKSTSGGTAALGCLVKDYFPEPVTVSWNSGALTSGVHTFPAVLQSSGLYSLSSVVTVPSSSLGTQTYICNVNHKPSNTKVDKKVEPKSCDKTHT light: DIQMTQSPSSLSASVGDRVTITCRASQSVSSAVAWYQQKPGKAPKLLIYSASSLYSGVPSRFSGSRSGTDFTLTISSLQPEDFATYYCQQGVYLFTFGQGTKVEIKRTVAAPSVFIFPPSDEQLKSGTASVVCLLNNFYPREAKVQWKVDNALQSGNSQESVTEQDSKDSTYSLSSTLTLSKADYEKHKVYACEVTHQGLSSPVTKSFNRGEC",TOPFLASH Maximal Signal (% Wnt3a maxima),[1],50 % Wnt3a maxima
same,TOPFLASH % Wnt Maxima,[2],49 % Wnt Maxima
